{"source": "paper PMC5497784", "about": "(Cell metabolism, 2017)", "proteins": {"B1": {"name": "IRE1α* (cytosolic kinase and RNase domains of human IRE1α, residues 469-977) (domain or fragment, UniProt O75460 469-977, looked up)", "chain": "HQQQQLQHQQFQKELEKIQLLQQQQQQLPFHPPGDTAQDGELLDTSGPYSESSGTSSPSTSPRASNHSLCSGSSASKAGSSPSLEQDDGDEETSVVIVGKISFCPKDVLGHGAEGTIVYRGMFDNRDVAVKRILPECFSFADREVQLLRESDEHPNVIRYFCTEKDRQFQYIAIELCAATLQEYVEQKDFAHLGLEPITLLQQTTSGLAHLHSLNIVHRDLKPHNILISMPNAHGKIKAMISDFGLCKKLAVGRHSFSRRSGVPGTEGWIAPEMLSEDCKENPTYTVDIFSAGCVFYYVISEGSHPFGKSLQRQANILLGACSLDCLHPEKHEDVIARELIEKMIAMDPQKRPSAKHVLKHPFFWSLEKQLQFFQDVSDRIEKESLDGPIVKQLERGGRAVVKMDWRENITVPLQTDLRKFRTYKGGSVRDLLRAMRNKKHHYRELPAEVRETLGSLPDDFVCYFTSRFPHLLAHTYRAMELCSHERLFQPYYFHEPPEPQPPVTPDAL"}}, "molecular_target": "the molecule itself", "test": "cross-linking", "data": [{"protein": "B1", "values": [{"measurement": "binding result", "value": "binds"}]}]}
